US9260728B2, “Terpene synthases from Santalum” (UNIVERSITY OF BRITISH COLUMBIA, priority 2009, dated 2016)

How the values were obtained:
Assay type in all cases: biochemical
[1] = SaSSy enzyme assay with GPP, GC-MS product analysis; details: GPP as substrate, Mn^2+
Description: Enzyme assays for both recombinant isoenzyme proteins P143 and S143 were done in duplicate using GC vials as per O'Maille, P. E., et al. (“A single-vial analytical and quantitative gas chromatography-mass spectrometry assay for terpene synthases,” Anal. Biochem. 335:210-217 (2004)). […] 20 μL of substrates FPP and GPP (˜1 mg/mL) were added and the mixture gently shaken. Final enzyme concentration was 0.3 mg/mL. Vials were overlaid with 500 μL of pentane to trap volatile products and incubated at 30° C. for 2 h.
The product mixture of the SaSSy enzyme was analysed on an Agilent 6890 GC with a 5973 MSD using helium as carrier gas. Peak identification was done using an HP5-MS capillary column (30 m, 0.25 mm ID, […]). Injector temperature was 240° C., detector temperature was set at 250° C., injection volume was 1 μL and column flow rate was 1 mL/min. Oven temperature program was as follows: oven program was held for 1 min at 40° C., then ramped at 7.5° C./min to 250° C. and held. All mass spectra were detected at 70 eV in multiple ion scan mode. […]

[2] = GC-FID determination of reaction products of terpene synthases from FPP with magnesium or manganese
[3] = as above; remark: listed apart in the source
Description: Enzyme assays for all recombinant proteins were done in triplicate using the GC vial method described by O'Maille et al. (Anal. Biochem. 335:[…] (2004). For enzyme assays where only product identification was needed, 10 μg of protein was used in a final volume of 500 μL of reaction buffer (25 mM HEPES, 10% glycerol, 5 mM DTT and 10 mM of either Mg^2+ or Mn^2+. Substrates (FPP and GPP) were added to a final reaction concentration of 100 μM. Vials were overlaid with 500 μL of hexane to trap volatile products and incubated at 30° C. for 2 h. Mixtures were vortexed for 1 min to extract all volatiles and the vials were centrifuged to separate the organic layer.
Product mixtures were analysed by GC-MS in scan mode for product identification. A standard containing the three santalenes and α-trans-bergamotene was prepared by flash chromatography of 2 mL of neat S. album oil over silica and eluted in hexane. A final yield of 25 mg was resuspended in EtOAc and purity was confirmed by GC-FID with conditions described below. All mass spectra were compared to the NIST 2005 library and the literature. Retention indices were determined for all compounds using an n-alkane standard and compared to the literature (R. P. Adams, “Identification of essential oil components by gas chromatography/mass spectrometry,” Allured Publishing Corporation, Carol Stream, Ill. (1995)).
(§1) GC-FID was performed on a Shimadzu GC2010 with a 30 m 0.25 mm ID, 0.25 μm film DB-WAX column with He as the carrier gas. Splitless injection (2 μL) was used for all analyses. Conditions were as follows: injector 200° C., detector 250° C., column flow rate 1 mL/min. Oven program: 40° C. for 3 min, then 8° C./min to 180° C., held 5 min, then 10° C./min to 220° C., held 10 min. Needle height was adjusted to only draw from the upper organic layer of all sample vials. GC-MS was performed on a Shimadzu GC2010 with the same DB-WAX column and using He as the carrier gas. Conditions were as follows: injector 200° C., MS interface 240° C., ion source 200° C. Oven program: 40° C. for 3 min, then 8° C./min to 180° C., held 5 min, then 10° C./min to 220° C., held 10 min. Solvent cut time was set to 5 min. For product identification, total ion monitoring was used, scanning from m/z 45 to m/z 300. For kinetic assays, single ion monitoring of the sesquiterpene base ions m/z 91, 93 and 94 were used. Likewise monoterpene base ions (m/z 69, 71 and 93) were monitored. An internal standard (isobutyl benzene, 30 μM) was added to the hexane used to overlay each reaction. Detector response factors were calculated based on the santalene standard prepared earlier and used to determine the product concentrations for kinetic analysis.

[4] = Steady-state enzyme kinetic assays
Description: For determination of steady-state enzyme kinetic constants, conditions were as described previously except the enzyme concentration was kept at 10 nM. Substrate concentrations ranged from 1 uM to 100 uM, and reactions were incubated at 30° C. for exactly 5 mins. Reactions were quenched by the addition of 500 μL 0.5 M EDTA, pH 8.0 and vortexed as above.
as §1

[5] = SaSSy enzyme assay with FPP, GC-MS product analysis
Description: Enzyme assays for both recombinant isoenzyme proteins P143 and S143 were done in duplicate using GC vials as per O'Maille, P. E., et al. (“A single-vial analytical and quantitative gas chromatography-mass spectrometry assay for terpene synthases,” Anal. Biochem. 335:210-217 (2004)). For each assay, 20 μL of protein (8 mg/mL) was added to 450 μL of reaction buffer containing 25 mM HEPES, 10% glycerol, 5 mM DTT and 10 mM of Mg^2+. 20 μL of substrates FPP and GPP (˜1 mg/mL) were added and the mixture gently shaken. Final enzyme concentration was 0.3 mg/mL. Vials were overlaid with 500 μL of pentane to trap volatile products and incubated at 30° C. for 2 h.
The product mixture of the SaSSy enzyme was analysed on an Agilent 6890 GC with a 5973 MSD using helium as carrier gas. Peak identification was done using an HP5-MS capillary column (30 m, 0.25 mm ID, […]). Injector temperature was 240° C., detector temperature was set at 250° C., injection volume was 1 μL and column flow rate was 1 mL/min. Oven temperature program was as follows: oven program was held for 1 min at 40° C., then ramped at 7.5° C./min to 250° C. and held. All mass spectra were detected at 70 eV in multiple ion scan mode.
The identities of products from SaSSy incubations were confirmed by comparison of mass spectra retention times to authentic sandalwood oil in the NIST 2005 library, see publications by Adams, R. P. (“Identification of essential oil components by gas chromatography/mass spectrometry,” Allured Publishing Corporation, Carol Stream, Ill. (1995)) and MassFinder (www.massfinder.com).
The mass spectrum of the four compounds produced by the SaSSy enzyme (shown in FIG. 2A) are the same as those of natural β-santalene produced in sandalwood trees (see Adams (1995), cited above, for comparison profiles).

B1: SaSSy: santalene synthase (terpene synthase) from Santalum album, gene SEQ ID NO:1, protein SEQ ID NO:2 (protein, listed as Santalum album)
chain: MDSSTATAMTAPFIDPTDHVNLKTDTDASENRRMGNYKPSIWNYDFLQSLATHHNIVEERHLKLAEKLKGQVKFMFGAPMEPLAKLELVDVVQRLGLNHLFETEIKEALFSIYKDGSNGWWFGHLHATSLRFRLLRQCGLFIPQDVFKTFQNKTGEFDMKLCDNVKGLLSLYEASYLGWKGENILDEAKAFTTKCLKSAWENISEKWLAKRVKHALALPLHWRVPRIEARWFIEAYEQEANMNPTLLKLAKLDFNMVQSIHQKEIGELARWWVTTGLDKLAFARNNLLQSYMWSCAIASDPKFKLARETIVEIGSVLTVVDDGYDVYGSIDELDLYTSSVERWSCVEIDKLPNTLKLIFMSMFNKTNEVGLRVQHERGYNSIPTFIKAWVEQCKSYQKEARWFHGGHTPPLEEYSLNGLVSIGFPLLLITGYVAIAENEAALDKVHPLPDLLHYSSLLSRLINDIGTSPDEMARGDNLKSIHCYMNETGASEEVAREHIKGVIEENWKILNQCCFDQSQFQEPFITFNLNSVRGSHFFYEFGDGFGVTDSWTKVDMKSVLIDPIPLGEE
modifications: SaSSy Protein
products formed [1]: a mixture of α-pinene, camphene, limonene and α-terpinolene, along with other monoterpene products
Relative % composition in oil produced by enzyme: epi-β-santalol [2]: 4.7%
Relative % composition in oil produced by enzyme: α-santalol [2]: 45.3%
E-β-farnesene among reaction products (GC-FID) ([3]; FPP Mg, mean): 1.7
Z-β-farnesene among reaction products (GC-FID) ([3]; FPP Mg, mean): 0.8
epi-β-santalene among reaction products (GC-FID) ([3]; FPP Mg, mean): 4.7
α-E-bergamotene among reaction products (GC-FID) ([3]; FPP Mg, mean): 16.0
α-santalene among reaction products (GC-FID) ([3]; FPP Mg, mean): 45.3
β-santalene among reaction products (GC-FID) ([3]; FPP Mg, mean): 31.5
E-β-farnesene among reaction products (GC-FID) ([3]; FPP Mg, replicate 1): 1.7
Z-β-farnesene among reaction products (GC-FID) ([3]; FPP Mg, replicate 1): 0.7
epi-β-santalene among reaction products (GC-FID) ([3]; FPP Mg, replicate 1): 4.6
α-E-bergamotene among reaction products (GC-FID) ([3]; FPP Mg, replicate 1): 16.3
α-santalene among reaction products (GC-FID) ([3]; FPP Mg, replicate 1): 46.4
β-santalene among reaction products (GC-FID) ([3]; FPP Mg, replicate 1): 30.4
E-β-farnesene among reaction products (GC-FID) ([3]; FPP Mg, replicate 2): 1.7
Z-β-farnesene among reaction products (GC-FID) ([3]; FPP Mg, replicate 2): 1.0
epi-β-santalene among reaction products (GC-FID) ([3]; FPP Mg, replicate 2): 5.1
α-E-bergamotene among reaction products (GC-FID) ([3]; FPP Mg, replicate 2): 15.3
α-santalene among reaction products (GC-FID) ([3]; FPP Mg, replicate 2): 43.8
β-santalene among reaction products (GC-FID) ([3]; FPP Mg, replicate 2): 33.1
E-β-farnesene among reaction products (GC-FID) ([3]; FPP Mg, replicate 3): 1.7
Z-β-farnesene among reaction products (GC-FID) ([3]; FPP Mg, replicate 3): 0.7
epi-β-santalene among reaction products (GC-FID) ([3]; FPP Mg, replicate 3): 4.3
α-E-bergamotene among reaction products (GC-FID) ([3]; FPP Mg, replicate 3): 16.4
α-santalene among reaction products (GC-FID) ([3]; FPP Mg, replicate 3): 45.6
β-santalene among reaction products (GC-FID) ([3]; FPP Mg, replicate 3): 31.2
E-β-farnesene among reaction products (GC-FID) ([3]; FPP Mn, mean): 7.6
Z-β-farnesene among reaction products (GC-FID) ([3]; FPP Mn, mean): 0.5
epi-β-santalene among reaction products (GC-FID) ([3]; FPP Mn, mean): 0.7
α-E-bergamotene among reaction products (GC-FID) ([3]; FPP Mn, mean): 74.7
α-santalene among reaction products (GC-FID) ([3]; FPP Mn, mean): 9.8
β-santalene among reaction products (GC-FID) ([3]; FPP Mn, mean): 6.6
E-β-farnesene among reaction products (GC-FID) ([3]; FPP Mn, replicate 1): 7.4
Z-β-farnesene among reaction products (GC-FID) ([3]; FPP Mn, replicate 1): 0.6
epi-β-santalene among reaction products (GC-FID) ([3]; FPP Mn, replicate 1): 0.9
α-E-bergamotene among reaction products (GC-FID) ([3]; FPP Mn, replicate 1): 75.7
α-santalene among reaction products (GC-FID) ([3]; FPP Mn, replicate 1): 9.5
β-santalene among reaction products (GC-FID) ([3]; FPP Mn, replicate 1): 6.0
E-β-farnesene among reaction products (GC-FID) ([3]; FPP Mn, replicate 2): 8.0
Z-β-farnesene among reaction products (GC-FID) ([3]; FPP Mn, replicate 2): 0.5
epi-β-santalene among reaction products (GC-FID) ([3]; FPP Mn, replicate 2): 0.8
α-E-bergamotene among reaction products (GC-FID) ([3]; FPP Mn, replicate 2): 73.4
α-santalene among reaction products (GC-FID) ([3]; FPP Mn, replicate 2): 9.9
β-santalene among reaction products (GC-FID) ([3]; FPP Mn, replicate 2): 7.3
E-β-farnesene among reaction products (GC-FID) ([3]; FPP Mn, replicate 3): 7.5
Z-β-farnesene among reaction products (GC-FID) ([3]; FPP Mn, replicate 3): 0.5
epi-β-santalene among reaction products (GC-FID) ([3]; FPP Mn, replicate 3): 0.5
α-E-bergamotene among reaction products (GC-FID) ([3]; FPP Mn, replicate 3): 74.9
α-santalene among reaction products (GC-FID) ([3]; FPP Mn, replicate 3): 10.1
β-santalene among reaction products (GC-FID) ([3]; FPP Mn, replicate 3): 6.4
Relative % composition in oil produced by enzyme: E-α-bergamotol ([3]; GC-FID): 16.0%
Relative % composition in oil produced by enzyme: β-santalol ([3]; GC-FID): 31.5%
Kcat ([4]; FPP): 0.0112 s⁻¹
Vmax ([4]; assays using FPP): 0.42 µM/min
epi-β-santalene in product mixture ([5]; FPP, Mg^2+ buffer): 4.3%
α-santalene in product mixture ([5]; FPP, Mg^2+ buffer): 34.7%
α-trans-bergamotene in product mixture ([5]; FPP, Mg^2+ buffer): 11.1%
β-santalene in product mixture ([5]; FPP, Mg^2+ buffer): 41.3%
Relative % composition in oil produced by enzyme: E-α-bergamotol ([5]; four major components only): 12.1%
Relative % composition in oil produced by enzyme: epi-β-santalol ([5]; four major components only): 4.7%
Relative % composition in oil produced by enzyme: α-santalol ([5]; four major components only): 38.0%
Relative % composition in oil produced by enzyme: β-santalol ([5]; four major components only): 45.2%
